Where a chain is given by its changes, count along the chain named. Names and notes keep the numbering of the source.
T1: Ep-CAM (UniProt P16422 24-265, limits assumed)
T1 sequence (looked up): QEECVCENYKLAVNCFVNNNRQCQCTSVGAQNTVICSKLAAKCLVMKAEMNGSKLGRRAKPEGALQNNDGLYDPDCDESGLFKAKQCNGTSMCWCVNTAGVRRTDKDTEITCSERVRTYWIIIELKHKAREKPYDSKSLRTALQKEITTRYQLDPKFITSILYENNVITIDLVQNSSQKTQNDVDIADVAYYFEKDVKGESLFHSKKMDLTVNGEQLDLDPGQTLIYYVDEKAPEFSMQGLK

B1: XPA23 light chain F94L (Fab, V domains shown)
VH: EVQLLESGGGLVQPGGSLRLSCAASGFTFSKYFMFWVRQAPGKGLEWVSVISPSGGMTRYADSVKGRFTISRDNSKNTLYLQMNSLRAEDTAVYYCARVGYGGNSDYWGQGTLVTVSS
VL: DIQMTQSPSSVSASVGDRLTIICRASQDINRWLAWYQQTPGNAPKLLIHSATSLQSGVPSRFSGSGSGTDFTLTINSLQPEDFATYYCQQADSLPLTFGGGTKVEIK
notes: Single light chain substitution; Fab in periplasmic extract; also called C5A (XPA23) F94L
B2: XPA23 light chain P95T (Fab, V domains shown)
VH: B1 VH
VL: B1 VL with L94F, P95T
notes: Single light chain substitution; Fab in periplasmic extract; also called C5A (XPA23) P95T
B3: XPA23 light chain P95G (Fab, V domains shown)
VH: B1 VH
VL: B1 VL with L94F, P95G
notes: Single light chain substitution; Fab in periplasmic extract; also called C5A (XPA23) P95G
B4: XPA23 light chain S53V (Fab, V domains shown)
VH: B1 VH
VL: B1 VL with S53V, L94F
notes: Single light chain substitution; Fab in periplasmic extract; also called C5A (XPA23) S53V
B5: XPA23 light chain S93T (Fab, V domains shown)
VH: B1 VH
VL: B1 VL with S93T, L94F
notes: Single light chain substitution; Fab in periplasmic extract; also called C5A (XPA23) S93T
B6: XPA23 light chain F94T (Fab, V domains shown)
VH: B1 VH
VL: B1 VL with L94T
notes: Single light chain substitution; Fab in periplasmic extract; also called C5A (XPA23) F94T
B7: XPA23 light chain S53G (Fab, V domains shown)
VH: B1 VH
VL: B1 VL with S53G, L94F
notes: Single light chain substitution; Fab in periplasmic extract; also called C5A (XPA23) S53G
B8: XPA23 light chain L96A (Fab, V domains shown)
VH: B1 VH
VL: B1 VL with L94F, L96A
notes: Single light chain substitution; Fab in periplasmic extract; also called C5A (XPA23) L96A
B9: XPA23 light chain S53I (Fab, V domains shown)
VH: B1 VH
VL: B1 VL with S53I, L94F
notes: Single light chain substitution; Fab in periplasmic extract; also called C5A (XPA23) S53I
B10: XPA23 light chain L96G (Fab, V domains shown)
VH: B1 VH
VL: B1 VL with L94F, L96G
notes: Single light chain substitution; Fab in periplasmic extract; also called C5A (XPA23) L96G
B11: XPA23 light chain L96T (Fab, V domains shown)
VH: B1 VH
VL: B1 VL with L94F, L96T
notes: Single light chain substitution; Fab in periplasmic extract; also called C5A (XPA23) L96T
B12: XPA23 light chain F94P (Fab, V domains shown)
VH: B1 VH
VL: B1 VL with L94P
notes: Single light chain substitution; Fab in periplasmic extract; also called C5A (XPA23) F94P
B13: XPA23 light chain S93A (Fab, V domains shown)
VH: B1 VH
VL: B1 VL with S93A, L94F
notes: Single light chain substitution; Fab in periplasmic extract; also called C5A (XPA23) S93A
B14: XPA23 light chain L96I (Fab, V domains shown)
VH: B1 VH
VL: B1 VL with L94F, L96I
notes: Single light chain substitution; Fab in periplasmic extract; also called C5A (XPA23) L96I
B15: XPA23 light chain S93I (Fab, V domains shown)
VH: B1 VH
VL: B1 VL with S93I, L94F
notes: Single light chain substitution; Fab in periplasmic extract; also called C5A (XPA23) S93I
B16: XPA23 light chain F94V (Fab, V domains shown)
VH: B1 VH
VL: B1 VL with L94V
notes: Single light chain substitution; Fab in periplasmic extract; also called C5A (XPA23) F94V
B17: XPA23 light chain S93L (Fab, V domains shown)
VH: B1 VH
VL: B1 VL with S93L, L94F
notes: Single light chain substitution; Fab in periplasmic extract; also called C5A (XPA23) S93L
B18: XPA23 light chain S53A (Fab, V domains shown)
VH: B1 VH
VL: B1 VL with S53A, L94F
notes: Single light chain substitution; Fab in periplasmic extract; also called C5A (XPA23) S53A
B19: XPA23 light chain P95I (Fab, V domains shown)
VH: B1 VH
VL: B1 VL with L94F, P95I
notes: Single light chain substitution; Fab in periplasmic extract; also called C5A (XPA23) P95I
B20: XPA23 light chain S93V (Fab, V domains shown)
VH: B1 VH
VL: B1 VL with S93V, L94F
notes: Single light chain substitution; Fab in periplasmic extract; also called C5A (XPA23) S93V
B21: XPA23 light chain P95V (Fab, V domains shown)
VH: B1 VH
VL: B1 VL with L94F, P95V
notes: Single light chain substitution; Fab in periplasmic extract; also called C5A (XPA23) P95V
B22: XPA23 light chain P95A (Fab, V domains shown)
VH: B1 VH
VL: B1 VL with L94F, P95A
notes: Single light chain substitution; Fab in periplasmic extract; also called C5A (XPA23) P95A
B23: XPA23 light chain S53P (Fab, V domains shown)
VH: B1 VH
VL: B1 VL with S53P, L94F
notes: Single light chain substitution; Fab in periplasmic extract; also called C5A (XPA23) S53P
B24: XPA23 light chain P95L (Fab, V domains shown)
VH: B1 VH
VL: B1 VL with L94F, P95L
notes: Single light chain substitution; Fab in periplasmic extract; also called C5A (XPA23) P95L
B25: XPA23 light chain L96P (Fab, V domains shown)
VH: B1 VH
VL: B1 VL with L94F, L96P
notes: Single light chain substitution; Fab in periplasmic extract; also called C5A (XPA23) L96P
B26: XPA23 light chain S93G (Fab, V domains shown)
VH: B1 VH
VL: B1 VL with S93G, L94F
notes: Single light chain substitution; Fab in periplasmic extract; also called C5A (XPA23) S93G
B27: XPA23 light chain S53L (Fab, V domains shown)
VH: B1 VH
VL: B1 VL with S53L, L94F
notes: Single light chain substitution; Fab in periplasmic extract; also called C5A (XPA23) S53L
B28: XPA23 light chain S93P (Fab, V domains shown)
VH: B1 VH
VL: B1 VL with S93P, L94F
notes: Single light chain substitution; Fab in periplasmic extract; also called C5A (XPA23) S93P
B29: ING-1 Fab, heavy chain A102L (Fab, V domains shown)
VH: QIQLVQSGPELKKPGETVKISCKASGYTFTKYGMNWVKQAPGKGLKWMGWINTYTEEPTYGDDFKGRFAFSLETSASTANLQINNLKSEDTATYFCARFGSLVDYWGQGTSVTVSS
VL: DIVMTQAAFSNPVTLGTSGSISCRSSKSLLHSNGITYLYWYLQKPGQSPQLLIYQMSNLASGVPDRFSSSGSGTDFTLRISRVEAEDVGVYYCAQNLELPRTFGGGTKLEMKR
notes: Fab in periplasmic extract
B30: ING-1 Fab, heavy chain G33T (Fab, V domains shown)
VH: B29 VH with G33T, L102A
VL: B29 VL
notes: Fab in periplasmic extract
B31: ING-1 Fab, heavy chain D104T (Fab, V domains shown)
VH: B29 VH with L102A, D104T
VL: B29 VL
notes: Fab in periplasmic extract
B32: ING-1 Fab, heavy chain D104V (Fab, V domains shown)
VH: B29 VH with L102A, D104V
VL: B29 VL
notes: Fab in periplasmic extract
B33: ING-1 Fab, heavy chain E57P (Fab, V domains shown)
VH: B29 VH with E57P, L102A
VL: B29 VL
notes: Fab in periplasmic extract
B34: ING-1 Fab, heavy chain G33A (Fab, V domains shown)
VH: B29 VH with G33A, L102A
VL: B29 VL
notes: Fab in periplasmic extract
B35: ING-1 Fab, heavy chain E56P (Fab, V domains shown)
VH: B29 VH with E56P, L102A
VL: B29 VL
notes: Fab in periplasmic extract
B36: ING-1 Fab, heavy chain G33V (Fab, V domains shown)
VH: B29 VH with G33V, L102A
VL: B29 VL
notes: Fab in periplasmic extract
B37: ING-1 Fab, heavy chain G100P (Fab, V domains shown)
VH: B29 VH with G100P, L102A
VL: B29 VL
notes: Fab in periplasmic extract
B38: ING-1 Fab, heavy chain D104P (Fab, V domains shown)
VH: B29 VH with L102A, D104P
VL: B29 VL
notes: Fab in periplasmic extract
B39: ING-1 Fab, heavy chain D104A (Fab, V domains shown)
VH: B29 VH with L102A, D104A
VL: B29 VL
notes: Fab in periplasmic extract
B40: ING-1 Fab, heavy chain E57L (Fab, V domains shown)
VH: B29 VH with E57L, L102A
VL: B29 VL
notes: Fab in periplasmic extract
B41: ING-1 Fab, heavy chain D104L (Fab, V domains shown)
VH: B29 VH with L102A, D104L
VL: B29 VL
notes: Fab in periplasmic extract
B42: ING-1 Fab, heavy chain K31L (Fab, V domains shown)
VH: B29 VH with K31L, L102A
VL: B29 VL
notes: Fab in periplasmic extract

These binders were tested against IL-1β (UniProt P01584 117-269) (assay: Biacore, Fab periplasmic extract on IL-1β).

| Binder | fold difference in affinity vs original | binding result |
| --- | --- | --- |
| B1 | 0.55 fold | – |
| B2 | – | no binding |
| B3 | – | no binding |
| B4 | 1.42 fold | – |
| B5 | 1.47 fold | – |
| B6 | – | no binding |
| B7 | 1.03 fold | – |
| B8 | 0.26 fold | – |
| B9 | 1.42 fold | – |
| B10 | – | no binding |
| B11 | 0.06 fold | – |
| B12 | 0.17 fold | – |
| B13 | 1.16 fold | – |
| B14 | 0.67 fold | – |
| B15 | 1.35 fold | – |
| B16 | 0.2 fold | – |
| B17 | 1.08 fold | – |
| B18 | 1.07 fold | – |
| B19 | – | no binding |
| B20 | 3.81 fold | – |
| B21 | – | no binding |
| B22 | 3.83 fold | – |
| B23 | 4.92 fold | – |
| B24 | – | no binding |
| B25 | – | no binding |
| B26 | 0.75 fold | – |
| B27 | 0.99 fold | – |
| B28 | – | no binding |

The binders below were run against T1, Ep-CAM (assay: Biacore, Fab periplasmic extract on immobilised Epcam).

| Binder | binding result | fold difference in affinity vs original |
| --- | --- | --- |
| B29 | no binding | – |
| B30 | – | 0.01 fold |
| B31 | no binding | – |
| B32 | no binding | – |
| B33 | no binding | – |
| B34 | – | 0.06 fold |
| B35 | – | 0.01 fold |
| B36 | – | 0.04 fold |
| B37 | no binding | – |
| B38 | no binding | – |
| B39 | no binding | – |
| B40 | no binding | – |
| B41 | no binding | – |
| B42 | – | 0.6 fold |
